Measurements from paper PMC1952068.
Where “and” joins values, the source holds several entries; their conditions need not be identical. Equal values may be shown once.

How the values were obtained:
Assay in all cases: fluorescence polarization
Settings in all cases: 10 mM Tris-HCl pH 7.5, 50 mM NaCl, no Mg2+, room temperature; FP: 1 nM duplex, 0.1 mg/mL BSA, 20 min; EMSA: 250 nM enzyme, 15 min, 6% gel
R.Eco29kI R86A = test system: R.Eco29kI R86A
R.Eco29kI Y49A = test system: R.Eco29kI Y49A
R.Eco29kI wt = test system: R.Eco29kI wt

“TTTTGGTACCGCGGCCGCAAGCTT (double strand) [24-bp duplex with Eco29kI site]” was tested. Which Kd (R.Eco29kI R86A) did it give?
The Kd was 21 nM and 344 nM^n.

What about the Kd (R.Eco29kI Y49A) of the same sequence?
The Kd was 49 nM and 529 nM^n.

And the Kd (R.Eco29kI wt)?
Its Kd is 16 nM and 299 nM^n.
